Measured values published in patent publication US20110274702A1.

B1: FI28 variant 1 (antibody, V domains shown)
VH: EVQLVESGGGAVQPGESLKLSCAASGFTFSNYGMHWVRQAPGKGLEWVAVISYDGSNKYYADSVKGRFTISRDNSKDTLYLQMNSLRAEDTALFYCAKERPLRLLRYFDWLSGGANDYWGQGTLVTVSS
VL: DIVMTQSPDSLAVSLGERATINCKSSQSVLYSSNNKNYLAWYQQKPGQPPKLLIDWASTRESGVPDRFSGSGSGTDFTLTISNLQVEDVAVYYCQQYYRSPSFGQGTKLEIK
B2: FI6 variant 2 (antibody, V domains shown)
VH: QVQLVQSGGGVVQPGRSLRLSCVASGFTFSTYAMHWVRQAPGRGLEWVAVISYDGNYKYYADSVKGRFSISRDNSNNTLHLEMNTLRTEDTALYYCAKDSQLRSLLYFEWLSQGYFDPWGQGTLVTVTS
VL: DIQMTQSPDSLAVSLGARATINCKSSQSVTFNYKNYLAWYQQKPGQPPKVLIYWASARESGVPDRFSGSGSGTDFTLTISSLQAEDVAVYYCQQHYRTPPTFGQGTKVEIK

Legend:
[1] = biological target: H7N7 A/Netherlands/219/03 HA protein (influenza A virus H7N7 A/Netherlands/219/03); assay: ELISA on HA
[2] = biological target: H7N7 A/Netherlands/219/03 HA protein (influenza A virus H7N7 A/Netherlands/219/03); assay: ELISA on coated HA

Row | Binder | Binding to HA by ELISA (% of subtype specific control antibodies) [1] [%] | EC50 [2] [µg/mL]
1 | B1 | -0.5 | 
2 | B2 | 87.9 | 0.026
